These results are taken from US20200140851A1 (Scripps Research, published 2020).

This experiment addresses T1, mouse vimentin (VIM from wild-type C57BL/6J mouse bone marrow lysates) (mouse, UniProt P20152 2-466).
T1 construct: Endogenous protein in bone marrow lysate, denatured for SDS/PAGE and Western blot
The experiment can be described thus: Western blot of bone marrow lysate. As to the method: To identify the protein recognized by the B1 antibody, antibodies were produced recombinantly in Expi293F cells. Purified B1 antibody (at a concentration of about 5-10 μg/ml) was incubated with human CD34⁺ cells, and immune complexes from cellular lysates were captured on a protein A/G column. Proteins that reacted with the antibody were identified by silver staining of SDS gels and their identity determined by mass spectrometry (MS). Three candidate proteins were identified above the background threshold (FIG. 5A). Vimentin (VIM) was one of the top hits and was confirmed to be B1 target antigen of B1 Ab by Western blotting. […] Also, VIM expression was found in human CD34⁺ cells by immunofluorescence cytochemistry using B1 or commercial VIM antibodies (FIG. 5C). The amino acid sequence identity between mouse and human VIM is greater than 97%.
Western blot: Cells were washed with PBS and then lysed in lysis buffer (50 mM Hlepes, pH 7.2, 150 mM NaCl, 50 mM NaF, 1 mM Na3VO₄, 10% glycerol, 1% Triton X-100). The lysates were then centrifuged at 12,000×g for 15 min at 4° C. The proteins were denatured in Laemmli sample buffer (5 min at 95° C.), separated by SDS/PAGE, and transferred to nitrocellulose membranes using the iBlot blotting system (Invitrogen). […]

T1 sequence (P20152 2-466 limits assumed): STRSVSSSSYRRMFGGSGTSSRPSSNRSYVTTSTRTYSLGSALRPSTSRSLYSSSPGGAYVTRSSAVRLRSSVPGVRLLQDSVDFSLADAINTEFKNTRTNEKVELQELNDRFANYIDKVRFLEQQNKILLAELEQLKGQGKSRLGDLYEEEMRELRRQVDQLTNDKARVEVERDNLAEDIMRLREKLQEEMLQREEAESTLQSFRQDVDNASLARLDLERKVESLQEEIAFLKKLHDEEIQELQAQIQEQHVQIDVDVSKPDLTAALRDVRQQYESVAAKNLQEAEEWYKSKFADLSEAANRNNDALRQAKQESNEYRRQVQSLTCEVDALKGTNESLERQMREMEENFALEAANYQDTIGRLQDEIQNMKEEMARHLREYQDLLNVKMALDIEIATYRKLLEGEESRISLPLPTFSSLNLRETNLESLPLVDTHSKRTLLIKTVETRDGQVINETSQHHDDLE

B1: B1 antibody (Fc fusion)
scFv: MAQVQLLESGGGLVQPGGSLTLACAASGFNFNNYNMNWVRQAPGRGLEWVAFISSAADTVHYADSVEGRFTISRDNAKNSLYLHMNSLRDEDTAVYYCARQLLYWGQGTLVTVSSGGGGGSQAVLTQPSSLSASPGASVSLTCTLRSGINVGAYRIYWYQQKPGSPPQFLLRYKSDSDKQQGSGVPSRFSGSRDASANAGILLISWLRSEDEADYYCAIWHSSAWVFGGGTQLTVLG
notes: also called B1 Ab; B1Ab; not shown: Fc tag of the purified ScFv-Fc fusion protein
In the case of B1, the binding result is “binds”.
